The target in test [1] is T1, DLL3 extracellular domain (amino acids 27-466) displayed on yeast (human, UniProt Q9NYJ7 27-466).
T1 construct: Yeast surface display construct with HA tag; also called DLL3 ECD; wild type DLL3 ECD
T1 sequence: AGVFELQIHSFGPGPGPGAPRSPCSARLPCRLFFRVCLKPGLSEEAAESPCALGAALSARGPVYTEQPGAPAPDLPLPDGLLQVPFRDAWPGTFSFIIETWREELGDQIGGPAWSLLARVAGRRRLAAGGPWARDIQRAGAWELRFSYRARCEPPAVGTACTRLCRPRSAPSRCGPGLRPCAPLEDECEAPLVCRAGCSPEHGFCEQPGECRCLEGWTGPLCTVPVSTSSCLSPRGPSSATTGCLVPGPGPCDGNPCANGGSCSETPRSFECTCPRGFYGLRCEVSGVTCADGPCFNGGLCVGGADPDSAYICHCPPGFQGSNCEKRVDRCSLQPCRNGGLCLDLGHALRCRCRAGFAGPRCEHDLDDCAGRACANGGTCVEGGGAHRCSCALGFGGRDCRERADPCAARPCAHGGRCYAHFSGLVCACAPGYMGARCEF
Put plainly: fine epitope mapping. The procedure: To test for binding to a particular construct, 200,000 induced yeast cells expressing the desired construct were washed twice in PBS+1 mg/mL BSA (PBSA), and incubated in 50 μL of PBSA with biotinylated anti-HA clone 3F10 (Roche Diagnostics) at 0.1 μg/mL and either 50 nM purified antibody or 1:2 dilution of unpurified supernatant from hybridomas cultured for 7 days. Cells were incubated for 90 minutes on ice, followed by two washes in PBSA. Cells were then incubated in 50 μL PBSA with the appropriate secondary antibodies: for murine antibodies, Alexa 488 conjugated streptavidin, and Alexa 647 conjugated goat anti mouse (Life Technologies) were added at 1 μg/mL each; and for humanized or chimeric antibodies, Alexa 647 conjugated streptavidin (Life Technologies) and R-phycoerythrin conjugated goat anti human (Jackson Immunoresearch) were added at 1 μg/mL each. After a twenty minute incubation on ice, cells were washed twice with PBSA and analyzed on a FACS Canto II. Antibodies that bound to DLL3-DLL1 chimera were designated as binding to the N-terminal region+DSL. Antibodies that bound specifically to an epitope present on a particular EGF-like domain were designated as binding to its respective domain (FIG. 2.)
Alternatively, a yeast display method (Chao et al., 2007, PMID: 17406305) was used to map the epitopes of selected antibodies. Libraries of DLL3 ECD mutants were generated with error prone PCR using nucleotide analogues 8-oxo-2′deoxyguanosine-5′-triphosphate and 2′-deoxy-p-nucleoside-5′triphosphate (TriLink Bio) for a target mutagenesis rate of one amino acid mutation per clone. These were transformed into a yeast display format. Using the technique described above for domain-level mapping, the library was stained for HA and antibody binding at 50 nM. […] These clones were re-grown, and subjected to another round of FACS sorting for loss of binding to the target antibody. Using the Zymoprep Yeast Plasmid Miniprep kit (Zymo Research), individual ECD clones were isolated and sequenced. […]

Test [2] concerns the target T2, human DLL3 (immobilized human DLL3 or h293-hDLL3 cells) (human, UniProt Q9NYJ7 27-492, limits assumed).
T2 construct: the sentence says 'immobilized human DLL3 or h293-hDLL3 cells'
T2 sequence: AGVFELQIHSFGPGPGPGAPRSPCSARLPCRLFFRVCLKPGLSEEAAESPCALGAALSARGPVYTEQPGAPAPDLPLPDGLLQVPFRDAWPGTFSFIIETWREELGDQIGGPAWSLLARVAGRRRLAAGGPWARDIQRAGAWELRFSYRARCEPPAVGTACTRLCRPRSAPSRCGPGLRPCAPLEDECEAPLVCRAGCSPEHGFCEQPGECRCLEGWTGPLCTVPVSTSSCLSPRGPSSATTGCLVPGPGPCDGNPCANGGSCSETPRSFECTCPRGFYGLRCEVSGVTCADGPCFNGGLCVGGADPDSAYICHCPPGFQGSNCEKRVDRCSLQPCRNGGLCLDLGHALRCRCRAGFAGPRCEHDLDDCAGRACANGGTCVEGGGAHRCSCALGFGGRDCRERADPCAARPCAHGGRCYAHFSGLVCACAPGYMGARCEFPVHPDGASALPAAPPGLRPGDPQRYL
Put plainly: hybridoma screening on immobilized human DLL3 or on h293-hDLL3 cells.

B1: SC16.56 (antibody, V domains shown)
VH: QIQLVQSGPELKKPGETVKISCKASGYTFTNYGMNWVKQAPGKGLKWMAWINTYTGEPTYADDFKGRFAFSLETSASTASLQIINLKNEDTATYFCARIGDSSPSDYWGQGTTLTVSS
VL: SIVMTQTPKFLLVSAGDRVTITCKASQSVSNDVVWYQQKPGQSPKLLIYYASNRYTGVPDRFAGSGYGTDFSFTISTVQAEDLAVYFCQQDYTSPWTFGGGTKLEIR
notes: murine mAb; variable regions only
B1: the binding result in test [1] and in test [2] was “binds” throughout.

B2: SC16.23 (antibody, V domains shown)
VH: QVTLKESGPGILQPSQTLSLTCSFSGFSLSTSNTGIGWIRQPSGTGLEWLAHIWWNDDKYYNPSLKSRLTISKETSNNQVFLKITNVDTADTASYFCVQIGRDYSNYAWYFDVWGAGTTVTVSS
VL: QIVLTQSPAIMSASPGEKVTLTCSASSSVSSRYLYWYQQKPGSSPKLWIYSTSNLASGVPARFSGSGSGTSYSLIISSMEAEDAASYFCHQWSNYPLTFGAGTKLELK
notes: as for B1
Consider B2, for which the binding result in test [1] and in test [2] was “binds” throughout.

Values taken from patent US20180044415A1 (AbbVie / Abbott, published 2018).
